Reference: patent US6673902B2, “Cyclin D binding factor, and uses thereof” (St. Jude Children's Research Hospital, priority 1996, dated 2004)

Molecular target: T1, recombinant DMP1 (Mus musculus, UniProt Q8CE22)
T1 construct: made in house; host or cells: Sf9 insect cells, pAcYM1 baculovirus vector; used as crude lysate (~4 ng DMP1 per reaction)
T1 sequence (Q8CE22 1-761): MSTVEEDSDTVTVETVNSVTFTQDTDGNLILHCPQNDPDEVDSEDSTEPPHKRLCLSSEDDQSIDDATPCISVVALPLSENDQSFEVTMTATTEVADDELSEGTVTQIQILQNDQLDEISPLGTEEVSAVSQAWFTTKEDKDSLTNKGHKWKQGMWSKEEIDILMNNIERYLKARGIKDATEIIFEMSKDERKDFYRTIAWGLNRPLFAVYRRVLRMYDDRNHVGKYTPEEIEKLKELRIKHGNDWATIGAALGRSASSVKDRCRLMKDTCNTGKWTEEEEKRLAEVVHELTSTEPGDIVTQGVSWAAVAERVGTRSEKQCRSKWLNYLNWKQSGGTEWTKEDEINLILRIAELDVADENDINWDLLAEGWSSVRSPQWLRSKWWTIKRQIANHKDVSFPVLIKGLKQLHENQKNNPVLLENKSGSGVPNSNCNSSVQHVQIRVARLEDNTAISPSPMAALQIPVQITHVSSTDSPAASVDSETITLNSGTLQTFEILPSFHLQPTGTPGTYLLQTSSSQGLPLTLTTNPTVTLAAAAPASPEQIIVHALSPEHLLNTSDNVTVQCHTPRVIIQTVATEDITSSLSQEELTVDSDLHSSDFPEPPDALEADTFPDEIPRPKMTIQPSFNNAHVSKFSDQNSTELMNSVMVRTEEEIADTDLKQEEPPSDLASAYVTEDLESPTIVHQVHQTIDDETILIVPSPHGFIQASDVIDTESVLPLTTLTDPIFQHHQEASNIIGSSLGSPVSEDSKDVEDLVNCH
Assay: EMSA competition, recombinant DMP1 and 281 base pair ARF promoter fragment
Assay type: binding
Settings: 200-fold excess of unlabelled oligonucleotide
Protocol: Electrophoretic mobility shift assay (EMSA). Recombinant DMP1 protein was prepared in Sf9 cells [Hirai and Sherr, Mol. Cell. Biol. 16:6457-6467 (1996)]. Purified bacterial proteins representing the Ets1 DNA binding domain or full-length Ets1 [Inoue, et al., J. Biol. Chem. 273:29188-29194 (1998)] were used. EMSAs were performed [Inoue and Sherr, Mol. Cell. Biol. 18:1590-1600 (1998)] using either a 281-bp genomic fragment (−225 to +56) or double-stranded oligonucleotides containing the DMP1/Ets site obtained by annealing oligonucleotide 5′-[…]-3′ (sense strand SEQ ID NO:41); DMP1/Ets consensus sequence underlined) with a complementary antisense strand. For competition experiments, a 200-fold excess of unlabelled oligonucleotides was added to reaction mixtures before the probe. To verify the identity of the proteins in shifted complexes, reaction mixtures were incubated with control nonimmune rabbit serum (NRS), serum AF [Hirai and Sherr, Mol. Cell. Biol. 16:6457-6467 (1996)] and M-10 (both to DMP1 carboxylterminal epitopes), S-19 (DMP1 N-terminus), or C-20 (Ets1 C-terminus) before electrophoresis. M-10, S-19, and C-20 were from Santa Cruz Biotechnology.
The nucleotide sequence of the proximal promoter region of the murine ARF gene relative to the transcription initiation site as defined by S1 mapping analysis was determined (FIG. 13). […]

M3: DMP1 deletion mutant (NcoI), amino acids 1-458 of SEQ ID NO:1
competition for DMP1 binding to the 281 base pair ARF promoter fragment: did not compete
